Measurements as given in a protein production outcome set (Wang et al. 2014).

experiment: label from the status in PepcDB records
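Further: failed if final PepcDB status was selected cloned or expressed and not failed if soluble or beyond.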

Row | Sequence | protein production
1 | MLINKTKRAEQNLNNLPFLALQAEQIEFLGSSAEFKTQIIELIRNAKKRIYVTALYWQKDEAGQEILDEIYRVKQENPHLDVKVLIDWHRAQRNLLGAEKSATNADWYCEQRQTYQLPDDPNMFFGVPINTREVFGVLHVKGFVFDDTVLYSGASINNVYLHQFEKYRYDRYQKITHAELADSMVNFINDYLLDFSAVYPLDVTNRPRTKEIRGNIRAYRKDLAQNGEYSLKSAVKLPNVLSVSPLFGLGASGNELNQVIEDLFLQVQKKLVICTPYFNFPRTLQHKIATLLENGKRVEIIVGDKVANDFYIPPEQPFKMAGALPYLYESNLRRFCEKFETQIESGQLVVRLWRDGDNTYHLKGVWVDDRYILLTGNNLNPRAWRLDAENGLLIYDPQQQLLAQVEKEQNQIRQHTKVLKHYTELEELNQYPEPVQKLLKKFARIKADKLVKMILLEHHHHHH | not failed
2 | MLISHSDLNQQLKSAGIGFNATELHGFLSGLLCGGLKDQSWLPLLYQFSNDNHAYPTGLVQPVTELYEQISQTLSDVEGFTFELGLTEDENVFTQADSLSDWANQFLLGIGLAQPELAKEKGEIGEAVDDLQDICQLGYDEDDNEEELAEALEEIIEYVRTIAMLFYSHFNEGEIESKPVLH | not failed
3 | MLKFPLCCSELSLEPKILAFESQLVSGRRDTIKVSAGKIGNFSLGSIFKSCETCGAKGAIECPGCKGTGKNKKNGNMFERWKCFDCQGFGMKSCPKCGKGGLTPEQRGER | failed
4 | MLKGIPKIIPPELLKVLCEMGHGDQLVIADGNFPAESIGKNAIVVRMDGHGGGEILKAILTVFPLDTYVDKPATLMEKVPGDTVATPIWDVYAGLIKEHDERGADAIGSLERFAFYEQAKNAYCVIASGESAQYANLILQKGVVFNAE | not failed
5 | MLKHFGSKVRNLRVTRNITREDFCGDETELSVRQLARIESGQSIPNLTKAHYIAKQLNVKLDILTGGESLELPKRYKELKYLILRIPTYADAERLKLRECQFDHIFEEFYDNLPEDECLAIDSLQAKFEVYQTGDINFGVEVLCECFDKVKYKEKYTLNDLIIIDLFLTCAVVSKFNNRAFTKEVFQTICKTLISQNHKLTAEDLFWFNHVLLNCVFVGLCLNSEECLAEMLEVSRQTMVSTHDFHKMPLYFMYQWKYFITIDNDIKSAENAYQQSIMFSKMIDDKHLIKKLELEWQEDITGH | failed
6 | MLKKLIEKVKSLTSVIKIVFFISVLVLIIVEMIHLKRTISVEQLKSVFGQLSPMNLFLIILVGVIAVLPTTGYDFVLNGLLRTDKSKRYILQTSWCINTFNNLSGFGGLIDIGLRMAFYGKKGQEKSDLREVTRFLPYLISGLSFISVIALIMSHIFHAKASVDYYYLVLIGASMYFPVIYWISGHKGSHYFGDMPSSTRIKLGVVSFFEWGCAAAAFIIIGYLMGIHLPVYKILPLFCIGCAVGIVSLIPGGLGSFELVLFTGFAAEGLPKETVVAWLLLYRLAYYIIPFFAGIYFFIHYLGSQINQRYENVPKELVSTVLQTMVSHLMRILGAFLIFSTAFFENITYIMWLQKLGLDPLQEQMLWQFPGLLLGVCFILLARTIDQKVKNAFPIAIIWITLTLFYLNLGHISWRLSFWFILLLLGLLVIKPTLYKKQFIYSWEERIKDGIIIVSLMGVLFYIAGLLFPIRAHITGGSIERLHYIIAWEPIALATLILTLVYLCLVKILQGKSCQIGDVFNVDRYKKLLQAYGGSSDSGLAFLNDKRLYWYQKNGEDCVAFQFVIVNNKCLIMGEPAGDDTYIREAIESFIDDADKLDYDLVFYSIGQKLTLLLHEYGFDFMKVGEDALVNLETFTLKGNKYKPFRNALNRVEKDGFYFEVVQSPHSQELLNSLEEISNTWLEGRPEKGFSLGYFNKDYFQQAPIALVKNAEHEVVAFANIMPNYEKSIISIDLMRHDKQKIPNGVMDFLFLSLFSYYQEKGYHYFDLGMAPLSGVGRVETSFAKERMAYLVYHFGSHFYSFNGLHKYKKKFTPLWSERYISCSRSSWLICAICALLMEDSKIKIVK | failed
7 | MLKKLLLVSTVLLLSACSSRQYSESSLTQSKIDIYEQTQNYVALSDLYKAELKKEDSEEIREALAAALLHLEDPESALFYLKPNIENGASFQSYYLQASALGDLGKYPQAIKAALLSLEENPDNPETENLLGILYGHEYQYEKSRRYFQKAQLHFYDSNTIANNLAVLDIAEGNYKRAAQRLLPVYRSGQANEQVMANLILSMAKEQNLEFIQAVLGDKHTKKEIERIYQSLQRFNSLDIDTKKSV | failed
8 | MLKLHLSEEERVIFASNLVASKKRFTKMEKGRFGNFLDNAKIISHIINPCLYDVEDATGYFLYSFTLNDERPK | failed
9 | MLKLSCNVTDHIHNLFSNSRRIFVPVHRQTRPISCFQLKKEPLRAILSADHGNSSVRVADTVSGTSPADRLRFGRLMEDGFSYKEKFIVRSYEVGINKTATIETIANLLQEVACNHVQNVGFSTDGFATTLTMRKLHLIWVTARMHIEIYKYPAWSDVVEIETWCQSEGRIGTRRDWILKDCATGEVIGRATSKWVMMNQDTRRLQRVTDEVRDEYLVFCPPEPRLAFPEENNSSLKKIPKLEDPAQYSMLGLKPRRADLDMNQHVNNVTYIGWVLESIPQEIIDTHELKVITLDYRRECQQDDIVDSLTTSETPNEVVSKLTGTNGSTTSSKREHNESHFLHILRLSENGQEINRGRTQWRKKSSR | failed
10 | MLKSKRKEIILSRLEQNKSVTLDELTSILETSESTVRRDLDELESAGFLKRVHGGAELPYSLGQELSNQEKAIKNVQKKLDIARQTAKLIAKQDVIFIDAGTTTELLIDFLPHEQLTVVTNSIHHAAKLVDRGIKTIIIGGAVKHSTDASIGQVAINQIRQITVDKAFLGMNGIDEVYLTTPDLEEAAIKEAIINNSQQTFILMDSSKIGQVTFAKVKEINDINLVTNKTDSELMTIIKEKMKVIQV | failed
11 | MLKTPSDAAVAGCLSLLLEVSGNPKAGNVDREHDFDDLKFEHFLASAAGAFPAFLEVAEKRIIGEGVLRAVKESMRWHRAENVHFGAFLLLVPLISSWDAG | not failed
12 | MLKTYQKLLAMGIFLIVLCSGNAAFAATNQVGGLSNVGFFHDYLIEPFSALLKGVAGLFHGEYGLSIILVTIIVRIVVLPLFVNQFKKQRIFQEKMAVIKPQVDSIQVKLKKTKDPEKQKELQMEMMKLYQEHNINPLAMGCLPMLIQSPIMIGLYYAIRSTPEIASHSFLWFSLGQSDILMSLSAGIMYFVQAYIAQKLSAKYSAVPQNPAAQQSAKLMVFIFPVMMTIFSLNVPAALPLYWFTSGLFLTVQNIVLQMTHHKSKKTAALTESVK | failed
13 | MLLAMALLIIGLLLVAYGADRLVFAASILCRTFGIPPLIIGMTVVSIGTSLPEIIVSAAASLHGQLDLAVGAALGSNITNILLILGLAALVRPFTVHSDVLRRELPLMLFVSVVAGSVLHDGQLSRSDGIFLLLLAVLWLLFIVKIARLAERQGNDSLTREQLAELPREGGLPVAFLWLGIALVIMPMATRMVIDNATVLANYFAMSELTLGLTVIAVGTSLPELATAIAGVRKGENDIAVGNLIGANIFNLAIVLGLPALIAPGEINPLAFGRDYSVMLLVSVVFALLCWRHPRQIGRGAGILLTGGFIVWLAMLYWLSPLLVG | failed
14 | MLLENFYKIIHIKEREDGKQEIEIELNPGHVLYQGHFPGQPVVPGVCTLQIIKESAEQIASQPLQYVQIASSKFLSAINPLETPLLQLFIRLEKTEEHLFKLQAEGICNGKEFIKLKAVLMASKYQLEHHHHHH | not failed
15 | MLLEVIPLTLPLLLTLLPIVVILVMLLVFRKAADVSGIIGWLAISVVAWLGFQTAPEVILRSTAAGFIRSFSVSLIVATSLLQMALMEKTGALRRITIFIRTIASDNRAVQIMMINIGFGTLMVAVGATPVSILPPILLAMGYSTYVAIALPAIGYDSLCTYALLGAPIVVFVDIANSFLGKGNEIALHQAGMVFYMFLPVVSTMIGFCMLWIVGKWQAIRDGWLPCLLTGAVIGVVARFTNQYDNLVVLTGVLCGIAVIAAMAAYLVVTGGKVIDRSLLSAEEREFAAAMPLWRAFMPWTLLVILILVLNVPQDLFSWLYRTMKLPIAGLTADGKPLDTRALWQAYTWILVSTILAVPFLKPTGEQLRETVRTWVRRAPRPVFAAAVFFAIGEIMNMAGYDMAAGRFVVPSMVTVLADSSALAFQGMYGEVVAFIGLFGGFITGSEASTIAMFAKYTMTTAKNLDMPLSGLIIVTAGLAFGGGLASVISPAKLQNAAAAIDRIGEEGKVIRIAFVFALLLTLVTSLFVVVLLTVNGMGRVS | failed
16 | MLLFEQPVDLEKNNEDDTNIKPFAISRHFLLKLLLCGIILIELLLYSKCPKPIDNGPRTIANRSNTYFNGTHDFKTLTILISIDGFHPRLIDAKYTPFLYNLHNLRSPYDMNITTAPYMIPSFPTQTFPNHWSMVTGKYPIEHGIVSNIFWDNFTSSEFRPNNLDARIWSNTADPIWQLLQTESQGEYKVATHMWPGSEVVYEDHGDVPRERMPFYFGKFNQWEKLQDKLAQIFRYIDMPQLKDRPELVISYIPNVDSYGHSFGYDLRDKRLQKLIGEVDGFFLDLIEGLQKRNLLKISNVMIVSDHGMSNVNANDGEHVVVWERVFPADAMSAFISHLYNEGPMMMVCLKNPRDKQWICDLIEAQLEKAYGDEISRKFHVILKEDFDPSWKYFQYDNRKHRYDDRVGDIWILADEYYAIVKEMGDVPIGIMGTHGYNFNNCSDMASIFIGMGPMFNNEVVPPFENIEVYNMLIKASALLGEEKTKKEKSLLQ | failed
17 | MLLHNGPMKLAEALIERADLQKRAAQLEERLVQNMQVQEGEVPAEDPRELLNELLTVSSALEVLLPRIHRANLSATLPSGQTLTDALTRRDLLDARLKALRRAATAAAERQTRYSNSELRMVAVIPPSELQKLADVMAKERRELEVQIQQANWQTDLPGSGALEHHHHHH | not failed
18 | MLLQKSKVLVLNASYEPLSICDARNAVLLLFCGKAMMVASHPEHRIRTVTENFPLPSIVRLMVYVRIDYRGAVLNRKNLFRRDGFRCQYCGCKDGSLTVDHVMPKSRGGEDTWENLITACKSCNTKKGNRTPSEAGMAMLNKPCRPSNITLMRQHYRSISDEWKPYLFMS | failed
19 | MLLRLPLLDLTPLPAPFYELAKDVEQSLITDPEKAREVAAKLHAATDTAQGLHRAYAELLLARTLLSTRQWQAALESFEKARKSLLALERAALVAHAVLGRVYILLGTGQYAEASAEAAELEAQLANGPVQAMEIRALALNAIAYAEYAQGRPVQAINHLKEALKLREQLSPIIIAACLCNLGISNIEQGNYREAIYWLMEAYRAHPDSNEDRQLELATLTNLAYAHYLAGDLSLATEITQKAYAAAGEWQSYKVRAYSALNLGTYNTELQQTGRARSYLQEALVLSQTQPELTADAVLRASILDSLGTLEHQDGNSESALELYTRAREIAQRDELPAVEALTQLNIGRMLGQLGRPEARAELERALELAVAACLFKEQFEAHTALAELTAAAADWRSAYRHQQELTRLKLHLLEGEHERQRKELRAELDLEQMRREGELSRERLKIEVAARERAEAETLERTQQLAQAQREVVLCLALAAEYRDSITGEHIKRVGTFAAHIALALGWSQADAELLMLASRLHDVGKIGIPDSILLKPGKLTEVEYVQMQAHTLIGSQILGQGNSALLKLAQTIALSHHERWNGEGYPYGLHGEAIPLAGRIVAVADVYDALIQRRPYKAAWTPEQAAAELSAQAGRHFDPALVEVALRILNDVHYSVDELKELGPPTVGPAAASLERELALRTQELQEARKNAGELLQLALSDSLTGLHNRRALELDLEQRIYPGAVDFYMTSLDLDSLKEINDSQGHQYGDQLLRQFALCLRQSCAAGKTYRIGGDEFAVLWNLDVTEQDIVQVLRRLPQNLRVTGQPGISFSYGSACYNRDAATAGDLLRVSDARMYRMKVGRRGEETDSIWFKEDH | failed
20 | MLLSIITVAFRNLEGIVKTHASLAHLAQVEDISFEWIVVDGGSNDGTREYLENLNGIFNLRFVSEPDNGIYDAMNKGIAMAQGKFALFLNSGDIFHQNAANFVRKLKMQKDNVMITGDALLDFGDGHKIKRSAKPGWYIYHSLPASHQAIFFPVSGLKKWRYDLEYKVSSDYALAAKMYKAGYAFKKLNGLVSEFSMGGVSTTNNMELCADAKKVQRQILHVPGFWAELSWHLRQRTTSKTKALYNKV | failed
